From article PMC9035363

Key:
[1] = target: RBD N440D on yeast (SARS-CoV-2) (UniProt P0DTC2)
[2] = target: SARS-CoV-2 S D614G on CHO cells (SARS-CoV-2) (UniProt P0DTC2)
[3] = target: SARS-CoV-2 S S494P on CHO cells (SARS-CoV-2) (UniProt P0DTC2)
[4] = target: RBD-Fc Y453F (SARS-CoV-2) (UniProt P0DTC2)
[5] = target: RBD-Fc L452R (SARS-CoV-2) (UniProt P0DTC2)
[6] = target: RBD-Fc D420N (SARS-CoV-2) (UniProt P0DTC2)
[7] = target: RBD-Fc K417E (SARS-CoV-2) (UniProt P0DTC2)
[8] = target: RBD-Fc E484K (SARS-CoV-2) (UniProt P0DTC2)
[9] = target: SARS-CoV-2 S S494P on CHO cells (SARS-CoV-2) (UniProt P0DTC2); remark: listed apart in the source
[10] = target: RBD-Fc K417T (SARS-CoV-2) (UniProt P0DTC2)
[11] = target: SARS-CoV-2 S N439K on CHO cells (SARS-CoV-2) (UniProt P0DTC2)
[12] = target: SARS-CoV-2 S S477N on CHO cells (SARS-CoV-2) (UniProt P0DTC2)
[13] = target: SARS-CoV-2 S D614G on CHO cells (SARS-CoV-2) (UniProt P0DTC2); remark: listed apart in the source
[14] = target: RBD-Fc L452R (SARS-CoV-2) (UniProt P0DTC2); remark: listed apart in the source
[15] = target: RBD-Fc K417N (SARS-CoV-2) (UniProt P0DTC2)
[16] = target: SARS-CoV-2 S N501Y on CHO cells (SARS-CoV-2) (UniProt P0DTC2)
[17] = target: RBD-Fc K417T (SARS-CoV-2) (UniProt P0DTC2); assay: SPR
[18] = target: RBD-Fc E484Q (SARS-CoV-2) (UniProt P0DTC2); assay: SPR
[19] = target: RBD-Fc E484D (SARS-CoV-2) (UniProt P0DTC2); assay: SPR
[20] = target: RBD-Fc N460T (SARS-CoV-2) (UniProt P0DTC2); assay: SPR
[21] = target: RBD-Fc S494P (SARS-CoV-2) (UniProt P0DTC2); assay: SPR
[22] = target: RBD-Fc G476S (SARS-CoV-2) (UniProt P0DTC2); assay: SPR
[23] = target: RBD-Fc F486I (SARS-CoV-2) (UniProt P0DTC2); assay: SPR
[24] = target: RBD-Fc V483A (SARS-CoV-2) (UniProt P0DTC2); assay: SPR
[25] = target: RBD-Fc Y453F (SARS-CoV-2) (UniProt P0DTC2); assay: SPR
[26] = target: RBD-Fc Y489H (SARS-CoV-2) (UniProt P0DTC2); assay: SPR
[27] = target: RBD-Fc F486V (SARS-CoV-2) (UniProt P0DTC2); assay: SPR
[28] = target: RBD-Fc N501Y (SARS-CoV-2) (UniProt P0DTC2); assay: SPR
[29] = target: RBD-Fc L452R (SARS-CoV-2) (UniProt P0DTC2); assay: SPR
[30] = target: RBD-Fc D420N (SARS-CoV-2) (UniProt P0DTC2); assay: SPR
[31] = target: RBD-Fc F490S (SARS-CoV-2) (UniProt P0DTC2); assay: SPR
[32] = target: RBD-Fc N460K (SARS-CoV-2) (UniProt P0DTC2); assay: SPR
[33] = target: RBD-Fc K417E (SARS-CoV-2) (UniProt P0DTC2); assay: SPR
[34] = target: RBD-Fc K417N (SARS-CoV-2) (UniProt P0DTC2); assay: SPR
[35] = target: RBD-Fc N460S (SARS-CoV-2) (UniProt P0DTC2); assay: SPR
[36] = target: RBD-Fc E484K (SARS-CoV-2) (UniProt P0DTC2); assay: SPR
[37] = target: RBD-Fc N439K (SARS-CoV-2) (UniProt P0DTC2); assay: SPR
[38] = target: RBD-Fc S477N (SARS-CoV-2) (UniProt P0DTC2); assay: SPR

Substance: LY-CoV1404 (bebtelovimab), full-length human IgG1 mAb (antibody)
- pseudovirus (whole S) susceptibility IC50 [1]: 6 ng/mL
- pseudovirus neutralisation (second system of Table 3D), IC50 [2]: 3 ng/mL
- pseudovirus susceptibility IC50 [3]: 1 ng/mL
- pseudovirus (whole S) susceptibility IC50 [4]: 2 ng/mL
- pseudovirus (whole S) susceptibility IC50 [5]: 2 ng/mL
- pseudovirus (whole S) susceptibility IC50 [6]: 2 ng/mL
- pseudovirus (whole S) susceptibility IC50 [7]: 4 ng/mL
- pseudovirus (whole S) susceptibility IC50 [8]: 2 ng/mL
- VSV pseudovirus neutralisation IC50 [9]: 2 ng/mL
- VSV pseudovirus (whole S) neutralisation IC50 [10]: 2 ng/mL
- VSV pseudovirus neutralisation IC50 [11]: 2 ng/mL
- VSV pseudovirus neutralisation IC90 [11]: 7 ng/mL
- VSV pseudovirus neutralisation IC50 [12]: 5 ng/mL
- VSV pseudovirus neutralisation IC90 [12]: 26 ng/mL
- lentiviral pseudovirus neutralisation IC50 [13]: 3 ng/mL
- lentiviral pseudovirus neutralisation IC90 [13]: 10 ng/mL
- VSV pseudovirus (whole S) neutralisation IC50 [14]: < 1 ng/mL
- lentiviral pseudovirus (whole S) neutralisation IC90 [14]: 10 ng/mL
- VSV pseudovirus (whole S) neutralisation IC50 [15]: 2 ng/mL
- VSV pseudovirus neutralisation IC50 [16]: 2 ng/mL
- VSV pseudovirus neutralisation IC90 [16]: 7 ng/mL

Substance: LY-CoV1404 Fab (papain digestion)
- Kd [17]: 2.54 nM
- Kd [18]: 3.74 nM
- Kd [19]: 3.37 nM
- Kd [20]: 3.52 nM
- Kd [21]: 3.46 nM
- Kd [22]: 4.35 nM
- Kd [23]: 2.69 nM
- Kd [24]: 3.29 nM
- Kd [25]: 3.28 nM
- Kd [26]: 3.06 nM
- Kd [27]: 2.82 nM
- Kd [28]: 2.9 nM
- Kd [29]: 4.94 nM
- Kd [30]: 4.09 nM
- Kd [31]: 2.99 nM
- Kd [32]: 3.4 nM
- Kd [33]: 2.59 nM
- Kd [34]: 3.08 nM
- Kd [35]: 2.6 nM
- Kd [36]: 3.19 nM
- Kd [37]: 5.05 nM
- Kd [38]: 3.45 nM
